In patent US20240287172A1 (SCIRHOM, published 2024):

Experiments:
[1] = molecular target: T1, hiR2-FL-I566E-T7 (human, UniProt Q6PJF5 1-856); experiment: FACS on MEF-DKO cells
T1 construct: on MEF-DKO cells; also called hiR2-FL-1566E-T7
T1 sequence: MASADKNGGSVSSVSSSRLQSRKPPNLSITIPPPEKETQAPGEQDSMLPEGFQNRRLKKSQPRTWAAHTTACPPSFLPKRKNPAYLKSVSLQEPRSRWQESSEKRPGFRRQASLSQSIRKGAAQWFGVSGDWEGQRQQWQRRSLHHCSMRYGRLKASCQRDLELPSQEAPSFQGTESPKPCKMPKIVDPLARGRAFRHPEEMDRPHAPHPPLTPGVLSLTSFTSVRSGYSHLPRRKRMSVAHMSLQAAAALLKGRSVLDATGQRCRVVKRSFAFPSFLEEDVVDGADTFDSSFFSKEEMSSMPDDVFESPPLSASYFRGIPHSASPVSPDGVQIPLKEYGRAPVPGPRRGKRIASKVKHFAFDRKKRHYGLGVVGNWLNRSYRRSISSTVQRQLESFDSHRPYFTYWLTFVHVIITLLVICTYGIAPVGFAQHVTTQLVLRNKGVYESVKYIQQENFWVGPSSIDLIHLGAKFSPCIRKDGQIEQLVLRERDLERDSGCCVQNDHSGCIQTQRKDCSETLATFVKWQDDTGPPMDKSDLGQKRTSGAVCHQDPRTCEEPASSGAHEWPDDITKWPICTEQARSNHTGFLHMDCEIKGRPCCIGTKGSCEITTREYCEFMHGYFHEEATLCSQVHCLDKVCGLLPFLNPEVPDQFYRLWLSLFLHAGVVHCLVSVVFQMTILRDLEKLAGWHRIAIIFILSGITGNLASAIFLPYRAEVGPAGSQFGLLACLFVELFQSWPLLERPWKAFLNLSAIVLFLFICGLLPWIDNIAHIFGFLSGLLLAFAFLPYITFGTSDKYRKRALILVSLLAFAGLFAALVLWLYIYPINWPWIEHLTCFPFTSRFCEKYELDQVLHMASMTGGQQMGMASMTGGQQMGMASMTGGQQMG

[2] = molecular target: T2, miR2-FL-WT-FLAG (mouse, UniProt Q80WQ6 1-827); experiment: FACS on MEF-DKO-miR2-FL-WT-FLAG cells
T2 construct: on MEF-DKO cells
T2 sequence: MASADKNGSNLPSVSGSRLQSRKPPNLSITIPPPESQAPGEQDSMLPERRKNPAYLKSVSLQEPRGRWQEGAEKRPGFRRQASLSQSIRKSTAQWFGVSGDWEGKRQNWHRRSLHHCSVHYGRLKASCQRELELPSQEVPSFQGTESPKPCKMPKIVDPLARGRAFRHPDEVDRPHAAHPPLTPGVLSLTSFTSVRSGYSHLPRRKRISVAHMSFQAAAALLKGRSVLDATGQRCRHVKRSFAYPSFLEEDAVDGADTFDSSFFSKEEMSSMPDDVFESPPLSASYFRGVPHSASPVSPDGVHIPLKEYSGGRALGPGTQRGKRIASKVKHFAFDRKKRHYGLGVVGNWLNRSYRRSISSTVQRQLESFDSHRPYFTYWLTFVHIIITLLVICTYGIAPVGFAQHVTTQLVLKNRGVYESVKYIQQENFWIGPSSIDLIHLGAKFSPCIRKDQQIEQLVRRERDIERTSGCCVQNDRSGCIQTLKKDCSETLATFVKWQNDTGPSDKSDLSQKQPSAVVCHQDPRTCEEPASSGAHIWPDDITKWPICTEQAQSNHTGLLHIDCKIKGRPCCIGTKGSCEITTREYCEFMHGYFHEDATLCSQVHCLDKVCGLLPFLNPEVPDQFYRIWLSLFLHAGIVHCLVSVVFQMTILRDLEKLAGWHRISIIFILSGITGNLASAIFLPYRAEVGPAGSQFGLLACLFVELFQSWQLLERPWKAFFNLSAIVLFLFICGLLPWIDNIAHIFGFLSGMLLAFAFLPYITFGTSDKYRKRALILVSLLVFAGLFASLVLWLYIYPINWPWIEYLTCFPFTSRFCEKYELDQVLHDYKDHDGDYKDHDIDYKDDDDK

[3] = molecular target: T3, hiR2-FL-L589P-T7 (human, UniProt Q6PJF5 1-856); experiment: FACS on MEF-DKO cells
T3 sequence: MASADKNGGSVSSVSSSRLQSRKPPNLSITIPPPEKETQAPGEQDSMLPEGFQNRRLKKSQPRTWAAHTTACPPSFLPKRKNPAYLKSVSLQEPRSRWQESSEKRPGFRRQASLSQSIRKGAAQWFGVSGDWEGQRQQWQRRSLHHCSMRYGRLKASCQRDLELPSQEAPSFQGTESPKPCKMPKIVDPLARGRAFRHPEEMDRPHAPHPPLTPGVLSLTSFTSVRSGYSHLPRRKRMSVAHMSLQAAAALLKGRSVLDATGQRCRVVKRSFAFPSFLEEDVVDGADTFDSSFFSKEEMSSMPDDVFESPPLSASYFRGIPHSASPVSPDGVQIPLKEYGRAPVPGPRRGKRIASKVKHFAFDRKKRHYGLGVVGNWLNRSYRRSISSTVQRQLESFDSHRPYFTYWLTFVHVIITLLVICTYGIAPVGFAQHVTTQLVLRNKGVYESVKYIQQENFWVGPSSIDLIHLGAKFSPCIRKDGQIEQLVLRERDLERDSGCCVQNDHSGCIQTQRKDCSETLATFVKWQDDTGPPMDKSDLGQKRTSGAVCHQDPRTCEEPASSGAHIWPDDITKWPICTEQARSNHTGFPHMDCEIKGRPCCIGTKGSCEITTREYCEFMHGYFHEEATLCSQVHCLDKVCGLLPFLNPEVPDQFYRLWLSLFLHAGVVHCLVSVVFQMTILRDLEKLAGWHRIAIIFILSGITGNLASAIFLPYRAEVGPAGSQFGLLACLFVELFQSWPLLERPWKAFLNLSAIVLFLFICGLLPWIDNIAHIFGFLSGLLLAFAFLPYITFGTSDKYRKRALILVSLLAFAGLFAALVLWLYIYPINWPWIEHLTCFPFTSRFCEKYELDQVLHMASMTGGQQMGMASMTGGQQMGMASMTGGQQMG

B1: antibody 5 (antibody, V domains shown)
VH: QVTLKESGPGILQPSQTLSLTCSFSGFSLSTFGMGVGWIRQPSGKGLEWLAHIWWDDEKYYNSALKSRLTISKATSKNQAFLKIANVDTADTATYYCARISNYGSNYWYFNVWGTGTTVTVSS
VL: QVVLTQSPALMSASPGEKVTMTCSAGSSVSCMYWYQQKPGSSPRVLIYDTSNLASGVPARFTGSGSGTSYSLTISRMEAEDAASYYCQQWNSYPLTFGAGTKLELK
notes: mouse IgG, kappa light chain; also called clone #5; purified antibody 5
B1: no binding (tested: 3 µg/ml) [1].

B2: antibody 3 (antibody, V domains shown)
VH: QVTLKESGPGILQPSQTLSLTCSFSGFSLTTFAMGIGWVRQPSGKGLEWLAHIWWDGEKYNNPVLKSRLTISKDTSKNQVFLRIANVDTPDTATYYCARISSIYYIIDNWGQGTSVTVSS
VL: DIVLTQSPATLSVTPGHSVSLSCRASQSISNNLHWYQKKSHESPRLLIKYVSQSISGIPSRFSGSGSGTDFTLSINSVETEDFGMYFCQQSYNWPLTFGAGTKLELK
notes: mouse IgG, kappa light chain; also called clone #3; purified antibody 3
B2: no binding (tested: 3 µg/ml) [2].

B3: antibody 50 (antibody, V domains shown)
VH: QVQLQQSGAELVRPGASVKVSCKASGYAFSNYLIEWVKQRPGQGLEWIGVINPGSGFTKYNEKFKGKATLTADKSSSTAYMQLSSLTSEDSAVYFCARGLYRAMDYWGQGTSVTVSS
VL: DIQMTQSPASQSASLGESVTITCLASQTIGTWLAWYQQKPGKSPQLLIYAAASLADGVPSRFSGGGSGTKFSFKISSLQAEDFVNYYCQQIYSTPYTFGGGTKLEIK
notes: mouse IgG, kappa light chain; also called clone #50; purified antibody 50
B3: no binding (tested: 3 µg/ml) [3].
